From the supplement of paper PMC11246515
± gives the standard deviation of the averaged measurements.

Assay: total protein half-life in vivo (active degradation + dilution); higher = more stable protein
[1] = E. coli NCM3722 delta-clpP delta-lon delta-hslV, growth: N-lim chemostat, doubling time 6 h
[2] = E. coli NCM3722 delta-clpP, growth: N-lim chemostat, doubling time 6 h
[3] = E. coli NCM3722 delta-lon, growth: N-lim chemostat, doubling time 6 h
[4] = E. coli NCM3722 delta-smpB, growth: N-lim chemostat, doubling time 6 h
[5] = wild type E. coli NCM3722, growth: C-lim chemostat, doubling time 3 h
[6] = wild type E. coli NCM3722, growth: C-lim chemostat, doubling time 6 h
[7] = wild type E. coli NCM3722, growth: C-lim chemostat, doubling time 12 h
[8] = wild type E. coli NCM3722, growth: N-lim chemostat, doubling time 6 h
[9] = wild type E. coli NCM3722, growth: N-lim chemostat, doubling time 12 h
[10] = wild type E. coli NCM3722, growth: P-lim chemostat, doubling time 6 h
[11] = wild type E. coli NCM3722, growth: P-lim chemostat, doubling time 12 h
[12] = E. coli NCM3722 delta-hslV, growth: N-lim chemostat, doubling time 6 h

Row | Sequence | total protein half-life in vivo [1] | total protein half-life in vivo [2] | total protein half-life in vivo [3] | total protein half-life in vivo [4] | total protein half-life in vivo [5] | total protein half-life in vivo [6] | total protein half-life in vivo [7] | total protein half-life in vivo [8] | total protein half-life in vivo [9] | total protein half-life in vivo [10] | total protein half-life in vivo [11] | total protein half-life in vivo [12]
1 | MALLPDKEKLLRNFLRCANWEEKYLYIIELGQRLPELRDEDRSPQNSIQGCQSQVWIVMRQNAQGIIELQGDSDAAIVKGLIAVVFILYDQMTPQDIVNFDVRPWFEKMALTQHLTPSRSQGLEAMIRAIRAKAAALS | 4.3 ± 0.53 h | 3.71 ± 0.31 h | 5.07 ± 1.1 h | 4.012 ± 0.015 h | 3.39 h | 4.57 ± 0.48 h | 9.46 ± 0.25 h | 3.509 ± 0.018 h | 5.75 ± 0.11 h | 4.85 ± 0.13 h | 10.1 ± 1.2 h | 
2 | MALNTPQITPTKKITVRAIGEELPRGDYQRCPQCDMLFSLPEINSHQSAYCPRCQAKIRDGRDWSLTRLAAMAFTMLLLMPFAWGEPLLHIWLLGIRIDANVMQGIWQMTKQGDAITGSMVFFCVIGAPLILVTSIAYLWFGNRLGMNLRPVLLMLERLKEWVMLDIYLVGIGVASIKVQDYAHIQAGVGLFSFVALVILTTVTLSHLNVEELWERFYPQRPATRRDEKLRVCLGCHFTGYPDQRGRCPRCHIPLRLRRRHSLQKCWAALLASIVLLLPANLLPISIIYLNGGRQEDTILSGIMSLASSNIAVAGIVFIASILVPFTKVIVMFTLLLSIHFKCQQGLRTRILLLRMVTWIGRWSMLDLFVISLTMSLINRDQILAFTMGPAAFYFGAAVILTILAVEWLDSRLLWDAHESGNARFDD [P0AD03] |  | 3.28 h | 4.34 h | 4.47 h |  |  |  | 4.43 h |  | 3.99 h | 6.67 ± 0.85 h | 
3 | MALPILLDCDPGHDDAIAIVLALASPELDVKAITSSAGNQTPEKTLRNVLRMLTLLNRTDIPVAGGAVKPLMRELIIADNVHGESGLDGPALPEPTFAPQNCTAVELMAKTLRESAEPVTIVSTGPQTNVALLLNSHPELHSKIARIVIMGGAMGLGNWTPAAEFNIYVDPEAAEIVFQSGIPVVMAGLDVTHKAQIHVEDTERFRAIGNPVSTIVAELLDFFLEYHKDEKWGFVGAPLHDPCTIAWLLKPELFTSVERWVGVETQGKYTQGMTVVDYYYLTGNKPNATVMVDVDRQGFVDLLADRLKFYA | 4.982 ± 0.041 h | 4.24 ± 0.14 h | 4.291 ± 0.039 h | 4.236 ± 0.027 h | 3.02 ± 0.045 h | 5.85 ± 0.58 h | 10.5 ± 0.72 h | 4.76 ± 0.19 h | 7.25 ± 0.29 h | 5.5168 ± 0.0052 h | 11.3 ± 0.33 h | 4.66 ± 1 h
4 | MALPRITQKEMTEREQRELKTLLDRARIAHGRVLTNSETNSIKKDYIDKLMVEREAEAKKARQLKKKQAYKPDPEASFSWSANTSTRGRR | 5.58 ± 1 h |  | 1.63 h | 2.02 h |  | 1.65 h | 2.08 h |  | 2.87 ± 0.66 h |  |  | 1.79 ± 0.25 h
5 | MALTTISPHDAQELIARGAKLIDIRDADEYLREHIPEADLAPLSVLEQSGLPAKLRHEQIIFHCQAGKRTSNNADKLAAIAAPAEIFLLEDGIDGWKKAGLPVAVNKSQPLPLMRQVQIAAGGLILIGVVLGYTVNSGFFLLSGFVGAGLLFAGISGFCGMARLLDKMPWNQRA | 4.3 ± 0.19 h | 4.2 ± 0.14 h | 4.74 ± 0.82 h | 5.91 ± 1.4 h | 2.61 ± 0.23 h | 6.01 ± 1.2 h | 8.96 ± 2.1 h | 4.58 ± 0.2 h | 8.75 ± 0.24 h | 5.266 ± 0.016 h | 10.3 ± 0.39 h | 4.71 ± 0.24 h
6 | MALWGGRFTQAADQRFKQFNDSLRFDYRLAEQDIVGSVAWSKALVTVGVLTAEEQAQLEEALNVLLEDVRARPQQILESDAEDIHSWVEGKLIDKVGQLGKKLHTGRSRNDQVATDLKLWCKDTVSELLTANRQLQSALVETAQNNQDAVMPGYTHLQRAQPVTFAHWCLAYVEMLARDESRLQDALKRLDVSPLGCGALAGTAYEIDREQLAGWLGFASATRNSLDSVSDRDHVLELLSAAAIGMVHLSRFAEDLIFFNTGEAGFVELSDRVTSGSSLMPQKKNPDALELIRGKCGRVQGALTGMMMTLKGLPLAYNKDMQEDKEGLFDALDTWLDCLHMAALVLDGIQVKRPRCQEAAQQGYANATELADYLVAKGVPFREAHHIVGEAVVEAIRQGKPLEDLPLSELQKFSQVIDEDVYPILSLQSCLDKRAAKGGVSPQQVAQAIAFAQARLG | 4.96 ± 1 h | 4 ± 0.055 h | 4.05 ± 0.2 h | 3.65 ± 0.28 h | 3.02 ± 0.055 h | 5.59 ± 0.33 h | 10.5 ± 0.22 h | 3.77 ± 0.17 h | 5.76 ± 0.05 h | 5.29 ± 0.76 h | 11 ± 0.68 h | 3.462 ± 0.011 h
